Assay results taken from paper PMC5678773.

Target: T1, CIB1 (cryptochrome-interacting basic-helix-loop-helix) fused with the GAL4 DNA-binding domain (Arabidopsis) (UniProt Q8GY61)
T1 sequence: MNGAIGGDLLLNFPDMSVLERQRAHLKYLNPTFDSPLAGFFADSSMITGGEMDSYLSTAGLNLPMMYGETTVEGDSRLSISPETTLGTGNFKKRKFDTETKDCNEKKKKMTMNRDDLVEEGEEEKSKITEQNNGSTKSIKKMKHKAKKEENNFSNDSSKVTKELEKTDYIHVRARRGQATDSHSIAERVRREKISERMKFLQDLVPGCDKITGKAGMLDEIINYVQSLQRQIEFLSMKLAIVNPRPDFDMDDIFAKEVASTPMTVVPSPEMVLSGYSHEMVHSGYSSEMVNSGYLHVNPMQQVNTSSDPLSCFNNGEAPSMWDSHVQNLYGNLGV

amiR-D1 transcript (gene downstream of the UAS) by quantitative PCR in the transgenic alga, after blue light irradiation against before (red light culture): > 14 fold
Substance: CRY2 (cryptochrome 2) fused with the VP16 transcription activation domain (from UniProt Q96524 1-612) (natural protein)
